From patent publication US20020182656

Target: T1, Purified, recombinant sGNK
T1 chain: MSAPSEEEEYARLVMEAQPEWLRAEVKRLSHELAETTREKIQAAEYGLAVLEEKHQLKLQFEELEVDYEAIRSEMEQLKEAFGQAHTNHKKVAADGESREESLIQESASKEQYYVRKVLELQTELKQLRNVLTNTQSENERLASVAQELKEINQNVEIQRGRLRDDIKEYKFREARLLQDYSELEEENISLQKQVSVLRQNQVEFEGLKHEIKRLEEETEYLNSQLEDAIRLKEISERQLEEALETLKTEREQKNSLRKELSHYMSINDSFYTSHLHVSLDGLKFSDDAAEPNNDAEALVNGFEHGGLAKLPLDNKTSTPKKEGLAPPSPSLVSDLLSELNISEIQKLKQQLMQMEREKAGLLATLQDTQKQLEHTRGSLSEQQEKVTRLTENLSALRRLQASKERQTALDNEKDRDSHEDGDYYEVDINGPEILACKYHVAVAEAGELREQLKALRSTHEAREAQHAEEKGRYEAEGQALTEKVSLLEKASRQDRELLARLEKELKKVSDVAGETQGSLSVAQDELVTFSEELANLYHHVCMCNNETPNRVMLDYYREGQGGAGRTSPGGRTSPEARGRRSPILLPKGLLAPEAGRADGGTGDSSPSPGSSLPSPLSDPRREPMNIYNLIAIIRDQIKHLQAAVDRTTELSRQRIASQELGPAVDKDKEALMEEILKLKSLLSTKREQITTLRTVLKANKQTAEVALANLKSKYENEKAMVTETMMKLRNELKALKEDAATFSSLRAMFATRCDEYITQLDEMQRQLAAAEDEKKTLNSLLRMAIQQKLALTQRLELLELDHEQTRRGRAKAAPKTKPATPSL

B1: Human recombinant GNK (hu-rGNK) (protein)
chain: MSVLGEYERHCDSINSDFGSESGGCGDSSPGPSASQGPRAGGGAAEQEELHYIPIRVLGRGAFGEATLYRRTEDDSLVVWKEVDLTRLSEKERRDALNEIVILALLQHDNIIAYYNHFMDNTTLLIELEYCNGGNLYDKILRQKDKLFEEEMVVWYLFQIVSAVSCIHKAGILHRDIKTLNIFLTKANLIKLGDYGLAKKLNSEYSMAETLVGTPYYMSPELCQGVKYNFKSDIWAVGCVIFELLTLKRTFDATNPLNLCVKIVQGIRAMEVDSSQYSLELIQMVHSCLDQDPEQRPTADELLDRPLLRKRRREMEEKVTLLNAPTKRPRSSTVTEAPIAVVTSRTSEVYVWGGGKSTPQKLDVIKSGCSARQVCAGNTHFAVVTVEKELYTWVNMQGGTKLHGQLGHGDKASYRQPKHVEKLQGKAIHQVSCGDDFTVCVTDEGQLYAFGSDYYGCMGVDKVAGPEVLEPMQLNFFLSNPVEQVSCGDNHVVVLTRNKEVYSWGCGEYGRLGLDSEEDYYTPQKVDVPKALIIVAVQCGCDGTFLLTQSGKVLACGLNEFNKLGLNQCMSGIINHEAYHEVPYTTSFTLAKQLSFYKIRTIAPGKTHTAAIDERGRLLTFGCNKCGQLGVGNYKKRLGINLLGGPLGGKQVIRVSCGDEFTIAATDDNHIFAWGNGGNGRLAMTPTERPHGSDICTSWPRPIFGSLHHVPDLSCRGWHTILIVEKVLNSKTIRSNSSGLSIGTVFQSSSPGGGGGGGGGEEEDSQQESETPDPSGGFRGTMEADRGMEGLISPTEAMGNSNGASSSCPGWLRKELENAEFIPMPDSPSPLSAAFSESEKDTLPYEELQGLKVASEAPLEHKPQVEASSPRLNPAVTCAGKGTPLTPPACACSSLQVEVERLQGLVLKCLAEQQKLQQENLQIFTQLQKLNKKLEGGQQVGMHSKGTQTAKEEMEMDPKPDLDSDSWCLLGTDSCRPSL
**Q.** For B1, which “phosphorylation of sGNK by GNK (kinase assay with gamma-32P-ATP, SDS-PAGE, Phosphoimager)” value is on record?
**A.** GNK-mediated phosphorylation of sGNK was demonstrated using the kinase assay described above, except purified, recombinant sGNK was added to the kinase reaction mixture
